Columns and labels:
[1] = target: IL3Rα (1-100) chimeric receptor protein: IL3Rα residues 1-100 fused to GMRα residues 115-325, His-tagged (human) (UniProt P15509); assay: ELISA on plate-coated His-tagged protein, A450
[2] = target: extracellular domain of CD123/IL-3Rα (residues 1-306), histidine tagged (human) (UniProt P26951); assay: ELISA on plate-coated His-tagged protein, A450
extracellular domain of CD123/IL-3Rα (residues 1-306), histidine tagged (human), sequence (P26951 19-306): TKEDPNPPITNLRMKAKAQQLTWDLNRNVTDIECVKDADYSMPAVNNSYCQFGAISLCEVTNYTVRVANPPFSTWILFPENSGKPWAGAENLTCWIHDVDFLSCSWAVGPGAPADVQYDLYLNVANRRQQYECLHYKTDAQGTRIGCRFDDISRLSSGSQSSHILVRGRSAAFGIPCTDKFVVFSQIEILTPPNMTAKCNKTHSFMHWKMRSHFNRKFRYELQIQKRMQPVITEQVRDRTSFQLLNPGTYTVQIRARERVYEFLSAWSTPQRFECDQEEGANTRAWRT

IL3Rα (1-100) chimeric receptor protein: IL3Rα residues 1-100 fused to GMRα residues 115-325, His-tagged (human), sequence (P15509 other isoform, or with tags, fused parts or gaps mutant limits assumed, form in doubt): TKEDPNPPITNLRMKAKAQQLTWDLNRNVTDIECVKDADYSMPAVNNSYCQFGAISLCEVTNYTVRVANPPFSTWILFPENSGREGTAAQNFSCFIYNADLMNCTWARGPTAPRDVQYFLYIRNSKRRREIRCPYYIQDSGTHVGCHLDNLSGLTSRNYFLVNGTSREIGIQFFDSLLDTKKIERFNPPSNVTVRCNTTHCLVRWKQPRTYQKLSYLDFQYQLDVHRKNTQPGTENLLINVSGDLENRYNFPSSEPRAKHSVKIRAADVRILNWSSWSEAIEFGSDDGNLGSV

- EC50 [1]: 0.0306 nM
- EC50 [2]: 0.027 nM
Substance: ch7G3 (antibody)

Reference: US20180079819A1
